Each sequence was assayed on Escherichia coli TOP10 (assay: shrunken log2 fold change of peptide-encoding DNA abundance (4.5 h post-induction vs induction); higher = less antimicrobial activity (less host growth inhibition)). Details: time post-induction: 4.5 h; library: site-saturation at positions 5, 18, 19, 20.
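Also: peptides expressed intracellularly from a pBAD plasmid library in pooled LB shake-flask culture, induced with 0.3% L-arabinose, DNA abundance read by NGS, three biological replicates, DESeq2 with apeglm shrinkage.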

Point of comparison: RRIRERPPRLPRPRPRPKEIPRP, “shrunken log2 fold change” value -0.357. Against it:
- RRIRGRPPRLPRPRPRPWGVPRP — higher, 0.287
- RRIRFRPPRLPRPRPRPTGKPRP — higher, 0.205
- RRIRCRPPRLPRPRPRPKCAPRP — higher, 0.121
- RRIRVRPPRLPRPRPRPDQFPRP — higher, -0.0568
- RRIRRRPPRLPRPRPRPHTKPRP — higher, 0.179
- RRIRHRPPRLPRPRPRPPSPPRP — higher, 0.169
- RRIRMRPPRLPRPRPRPNDCPRP — higher, -0.00865
- RRIRFRPPRLPRPRPRPSSNPRP — lower, -0.715
- RRIRMRPPRLPRPRPRPHRGPRP — higher, 0.0388
- RRIRDRPPRLPRPRPRPFMHPRP — higher, -0.148
- RRIRDRPPRLPRPRPRPQHKPRP — within 0.2 log units, -0.217
- RRIRARPPRLPRPRPRPEMDPRP — higher, 0.41
- RRIRRRPPRLPRPRPRPGGNPRP — higher, 0.475
- RRIRPRPPRLPRPRPRPVWRPRP — higher, 0.516
- RRIRNRPPRLPRPRPRPHTTPRP — within 0.2 log units, -0.235
- RRIRDRPPRLPRPRPRPAMTPRP — higher, 0.812
- RRIRVRPPRLPRPRPRPGAPPRP — higher, 0.603
- RRIRYRPPRLPRPRPRPFVRPRP — higher, 0.00599
- RRIRDRPPRLPRPRPRPVCEPRP — higher, 1.18
- RRIRSRPPRLPRPRPRPIHSPRP — lower, -0.567
- RRIRGRPPRLPRPRPRPAYSPRP — higher, -0.0128
- RRIRCRPPRLPRPRPRPTRYPRP — higher, -0.0935
- RRIRVRPPRLPRPRPRPMMIPRP — higher, -0.131
- RRIRTRPPRLPRPRPRPAFDPRP — higher, 0.161
- RRIRGRPPRLPRPRPRPIVNPRP — higher, 0.187
- RRIRIRPPRLPRPRPRPYQFPRP — higher, -0.141
- RRIRWRPPRLPRPRPRPQDVPRP — higher, -0.0384
- RRIRWRPPRLPRPRPRPHCSPRP — higher, -0.00908
- RRIRQRPPRLPRPRPRPIAIPRP — higher, 0.00329
- RRIRQRPPRLPRPRPRPMRNPRP — higher, -0.0579
- RRIRQRPPRLPRPRPRPYVRPRP — within 0.2 log units, -0.216
- RRIRSRPPRLPRPRPRPYWSPRP — within 0.2 log units, -0.414
- RRIRERPPRLPRPRPRPVSVPRP — higher, -0.022
- RRIRFRPPRLPRPRPRPASWPRP — higher, 0.026
- RRIRPRPPRLPRPRPRPFGCPRP — higher, -0.144
- RRIRWRPPRLPRPRPRPAYAPRP — higher, 0.531
- RRIRNRPPRLPRPRPRPYCGPRP — within 0.2 log units, -0.352
- RRIRQRPPRLPRPRPRPQAGPRP — within 0.2 log units, -0.158
- RRIRTRPPRLPRPRPRPQDCPRP — higher, 0.0249
- RRIRIRPPRLPRPRPRPQMTPRP — lower, -0.733
- RRIRERPPRLPRPRPRPRWRPRP — higher, 0.706
- RRIRKRPPRLPRPRPRPNRQPRP — higher, 1.09
- RRIRSRPPRLPRPRPRPYKVPRP — higher, -0.0179
- RRIRFRPPRLPRPRPRPYHFPRP — within 0.2 log units, -0.194
- RRIRMRPPRLPRPRPRPFFCPRP — higher, 0.0186
- RRIRVRPPRLPRPRPRPRFFPRP — higher, 0.287
- RRIRCRPPRLPRPRPRPHWDPRP — within 0.2 log units, -0.306
- RRIRWRPPRLPRPRPRPRCAPRP — higher, 0.586
- RRIRSRPPRLPRPRPRPVEFPRP — lower, -0.928
- RRIRIRPPRLPRPRPRPYVRPRP — within 0.2 log units, -0.199
- RRIRSRPPRLPRPRPRPGCIPRP — higher, 0.0242
- RRIRMRPPRLPRPRPRPVYVPRP — within 0.2 log units, -0.161
- RRIRWRPPRLPRPRPRPTLCPRP — higher, 0.127
- RRIRFRPPRLPRPRPRPATWPRP — higher, 0.317
- RRIRSRPPRLPRPRPRPAVLPRP — within 0.2 log units, -0.355
- RRIRPRPPRLPRPRPRPWWGPRP — higher, -0.0751
- RRIRLRPPRLPRPRPRPPLDPRP — higher, 0.436
- RRIRDRPPRLPRPRPRPTMTPRP — higher, 0.334
- RRIRWRPPRLPRPRPRPITLPRP — higher, 0.107
- RRIRCRPPRLPRPRPRPEQGPRP — within 0.2 log units, -0.205
- RRIRYRPPRLPRPRPRPPGRPRP — higher, 0.643
- RRIRNRPPRLPRPRPRPTRSPRP — within 0.2 log units, -0.177
- RRIRIRPPRLPRPRPRPMDWPRP — higher, 0.0118
- RRIRKRPPRLPRPRPRPDYGPRP — higher, 0.111
- RRIRRRPPRLPRPRPRPQDQPRP — higher, 0.168
- RRIRSRPPRLPRPRPRPVAMPRP — higher, 0.0384
- RRIRFRPPRLPRPRPRPEWTPRP — higher, 0.155
- RRIRDRPPRLPRPRPRPVITPRP — higher, 0.0916
- RRIRKRPPRLPRPRPRPMCFPRP — higher, 0.265
- RRIRQRPPRLPRPRPRPQKKPRP — within 0.2 log units, -0.214
- RRIRERPPRLPRPRPRPNIRPRP — within 0.2 log units, -0.273
- RRIRRRPPRLPRPRPRPMENPRP — higher, 0.113
- RRIRFRPPRLPRPRPRPAALPRP — higher, -0.0867
- RRIRSRPPRLPRPRPRPLYVPRP — within 0.2 log units, -0.467
- RRIRDRPPRLPRPRPRPIFTPRP — higher, -0.0502
- RRIRNRPPRLPRPRPRPIMQPRP — higher, -0.0584
- RRIRNRPPRLPRPRPRPIENPRP — higher, 0.0211
- RRIRRRPPRLPRPRPRPAPGPRP — higher, 0.812
- RRIRDRPPRLPRPRPRPDFAPRP — higher, 0.152
- RRIRERPPRLPRPRPRPESGPRP — higher, -0.0112
- RRIRTRPPRLPRPRPRPPKAPRP — higher, 0.0856
- RRIRMRPPRLPRPRPRPISMPRP — higher, 0.0246
- RRIRNRPPRLPRPRPRPWMEPRP — higher, -0.00208
- RRIRKRPPRLPRPRPRPQLDPRP — higher, 0.207
- RRIRRRPPRLPRPRPRPIELPRP — within 0.2 log units, -0.192
- RRIRRRPPRLPRPRPRPMYAPRP — higher, 0.148
- RRIRIRPPRLPRPRPRPTAKPRP — within 0.2 log units, -0.184
- RRIRHRPPRLPRPRPRPAAHPRP — higher, 0.274
- RRIRWRPPRLPRPRPRPREMPRP — higher, 0.262
- RRIRMRPPRLPRPRPRPMCEPRP — higher, 0.273
- RRIRFRPPRLPRPRPRPLHFPRP — higher, 0.0202
- RRIRQRPPRLPRPRPRPPTSPRP — higher, -0.00728
- RRIRQRPPRLPRPRPRPICIPRP — higher, -0.0334
- RRIRNRPPRLPRPRPRPCHGPRP — higher, -0.00208
- RRIRCRPPRLPRPRPRPQRHPRP — within 0.2 log units, -0.173
- RRIRCRPPRLPRPRPRPNVDPRP — within 0.2 log units, -0.215
- RRIRKRPPRLPRPRPRPFPTPRP — higher, 2.75
- RRIRARPPRLPRPRPRPASRPRP — higher, 0.44
- RRIRVRPPRLPRPRPRPQKDPRP — within 0.2 log units, -0.187
- RRIRPRPPRLPRPRPRPKCYPRP — within 0.2 log units, -0.193
- RRIRTRPPRLPRPRPRPPSDPRP — higher, 0.498
- RRIRIRPPRLPRPRPRPLHEPRP — within 0.2 log units, -0.191
- RRIRIRPPRLPRPRPRPVNQPRP — higher, 0.0745
- RRIRPRPPRLPRPRPRPRVEPRP — higher, 0.625
- RRIRERPPRLPRPRPRPGHFPRP — higher, 0.0631
- RRIRERPPRLPRPRPRPRHQPRP — within 0.2 log units, -0.164
- RRIRTRPPRLPRPRPRPGPSPRP — higher, 0.438
- RRIRWRPPRLPRPRPRPDLTPRP — higher, 0.251
- RRIRERPPRLPRPRPRPFTKPRP — higher, -0.0421
- RRIRLRPPRLPRPRPRPHWTPRP — higher, -0.015
- RRIRTRPPRLPRPRPRPGDYPRP — higher, 0.142
- RRIRHRPPRLPRPRPRPGRSPRP — higher, 3.99
- RRIRRRPPRLPRPRPRPKPMPRP — higher, 0.687
- RRIRCRPPRLPRPRPRPNFGPRP — higher, -0.0314
- RRIRGRPPRLPRPRPRPWYGPRP — within 0.2 log units, -0.242
- RRIRCRPPRLPRPRPRPAYPPRP — higher, -0.149
- RRIRVRPPRLPRPRPRPAWGPRP — higher, 0.515
- RRIRKRPPRLPRPRPRPLCSPRP — higher, 0.0457
- RRIRDRPPRLPRPRPRPQVSPRP — higher, 0.0416
- RRIRGRPPRLPRPRPRPWRSPRP — higher, 0.172
- RRIRVRPPRLPRPRPRPENIPRP — higher, -0.125
- RRIRIRPPRLPRPRPRPIFFPRP — higher, -0.123
- RRIRNRPPRLPRPRPRPKANPRP — higher, 0.177
- RRIRTRPPRLPRPRPRPIQYPRP — higher, -0.044
- RRIRWRPPRLPRPRPRPWDMPRP — higher, -0.00946
- RRIRKRPPRLPRPRPRPVHDPRP — higher, 0.0707
- RRIRSRPPRLPRPRPRPTPQPRP — higher, 0.388
- RRIRSRPPRLPRPRPRPMTAPRP — higher, -0.0379
- RRIRFRPPRLPRPRPRPKHCPRP — higher, -0.0918
- RRIRRRPPRLPRPRPRPAILPRP — higher, -0.017
- RRIRPRPPRLPRPRPRPRHLPRP — higher, -0.0836
- RRIRHRPPRLPRPRPRPYSRPRP — higher, -0.0123
- RRIRDRPPRLPRPRPRPFRQPRP — higher, -0.137
- RRIRVRPPRLPRPRPRPTGCPRP — higher, 0.0918
- RRIRGRPPRLPRPRPRPHFNPRP — higher, 0.232
- RRIRERPPRLPRPRPRPSVIPRP — within 0.2 log units, -0.259
- RRIRQRPPRLPRPRPRPGQLPRP — higher, -0.0292
- RRIRQRPPRLPRPRPRPVCCPRP — higher, 0.161
- RRIRLRPPRLPRPRPRPMKKPRP — higher, 0.0162
- RRIRARPPRLPRPRPRPRFIPRP — within 0.2 log units, -0.259
- RRIRARPPRLPRPRPRPVNSPRP — higher, -0.0786
- RRIRKRPPRLPRPRPRPMPAPRP — higher, 0.15
- RRIRGRPPRLPRPRPRPIETPRP — higher, 0.312
- RRIRARPPRLPRPRPRPANYPRP — higher, -0.122
- RRIRCRPPRLPRPRPRPNIIPRP — higher, 0.796
- RRIRKRPPRLPRPRPRPWICPRP — higher, 0.044
- RRIRNRPPRLPRPRPRPIGPPRP — within 0.2 log units, -0.181
- RRIRMRPPRLPRPRPRPTSYPRP — higher, -0.0286
- RRIRDRPPRLPRPRPRPRCFPRP — higher, 1.66
